From article PMC9602339, “Diaminopimelic Acid Metabolism by Pseudomonadota in the Ocean” (Microbiology Spectrum, 2022)

What was measured:
[1] = substrate: NC(CCCC(N)C(=O)O)C(=O)O; assay: initial rates, Lys production by amino acid analyzer; nonlinear Michaelis-Menten fit; assay type: biochemical, Thalassospira sp. A40-3; conditions: 0 to 12 mM DAP, 200 mM Tris-HCl pH 8.0, PLP (100 mM [sic]), 25°C, DAP stereoisomer not given
Text: initial rates, Lys production by amino acid analyzer; nonlinear Michaelis-Menten fit on LysA (DAP decarboxylase) from strain A40-3

[2] = substrate: NC(CCCC(N)C(=O)O)C(=O)O; assay: as above; assay type: biochemical, Halomonas sp. A40-4; conditions: 0 to 12 mM DAP, 200 mM Tris-HCl pH 8.0, PLP (100 mM [sic]), 25°C, DAP stereoisomer not given
Text: initial rates, Lys production by amino acid analyzer; nonlinear Michaelis-Menten fit on LysA (DAP decarboxylase) from strain A40-4

B1: LysA (DAP decarboxylase) from strain A40-3 (Thalassospira sp. A40-3) (protein)
chain: MNHFEYINSELYAEGVSIREMADKVGTPFFCYSTATLERHYKVYADAFDGLDATVCFAVKANSNQAVLKTLANLGAGADVVSVGEMRRALRAGMPPAKIIFSGVGKADAEMREALDADIAQINVESIPELVELNRVAIDMGKKARIALRVNPHVDAKTHEKIATGKAENKFGIDWTRAIEVYREAAAMDGIEVTGIAMHIGSQLTDLAPFREAFTRLAGLVEQLRSEGIDIRNLDLGGGLGIAYQGETPPLPDAYGQMVRETVGHLGCHITLEPGRLIAGNAGIMVSRVMYIKDGEAKRFVILDAAMNDLIRPTLYGAYHEIIPVDEQTDGDKQVKVDVVGPVCETGDTFGKDRDLPDDLKAGDLVAVMSAGAYGAVMSSTYNTRALTPEVLVKGNNFAIVRPRQEIDDLINMDLVPSWLSNA
notes: full length 423 residues
- Km [1]: 1.89 ± 0.34 mM
- Vmax [1]: 37.7 µmol/min/mg
- kcat [1]: 26.9 ± 2.42 s⁻¹

B2: LysA (DAP decarboxylase) from strain A40-4 (Halomonas sp. A40-4) (protein)
chain: MDHFNDRDGLLFAEDVPLDRIAETYGTPCYVYSKATLTRHFRAYTEALGGHPHLICYAVKANSNLAVLGLLAKLGAGFDIVSVGELERVLKAGGDPDKVVFSGVAKQPHEMARALEVGIKCFNVESRPELERLNAVAGELGKMAPVSLRVNPDVDAGTHPYISTGLKDNKFGIPVDDALTVYELAASLPNLQVKGLDCHIGSQLTETAPFLDALERLLVLMERLRERGIEIDHLDLGGGLGVPYRDETPPHPFDYASQLLSRLSRWEGGEQLTLLFEPGRSIAANAGIMLTRVEFLKPGETKNFAIVDAAMNDLIRPALYQAWQAIVPVDTRSARETSIYDVVGPVCETGDFLGQERELAIAAGDLLAVRSAGAYGFVMASNYNSRPRPAEVMVDGERCHLVRARETLESLWSGEALLPEGGC
notes: lysA complementation fragment 1,272 bp
- Km [2]: 0.72 ± 0.14 mM
- Vmax [2]: 58.3 µmol/min/mg
- kcat [2]: 41.6 ± 0.88 s⁻¹
